Laboratory results: paper PMC12316734, “Lipase Activation by Poly(Methyl Methacrylate) in Dispersed Solution: Mechanistic Insights by Fluorescence Spectroscopy” (Applied Biochemistry and Biotechnology, 2025)

Target: the molecule itself
Test: fluorescence correlation spectroscopy; 15 nM Atto 488-labelled TLL plus non-labelled TLL to 500 nM, no PMMA, broad-range buffer (succinic acid/NaH2PO4/glycine), pH 7 and pH 5; mean diffusion constant compared with the value predicted for the monomer (Hullrad)

B1: Thermomyces lanuginosus lipase (enzyme, UniProt O59952 23-291, looked up)
chain: EVSQDLFNQFNLFAQYSAAAYCGKNNDAPAGTNITCTGNACPEVEKADATFLYSFEDSGVGDVTGFLALDNTNKLIVLSFRGSRSIENWIGNLNFDLKEINDICSGCRGHDGFTSSWRSVADTLRQKVEDAVREHPDYRVVFTGHSLGGALATVAGADLRGNGYDIDVFSYGAPRVGNRAFAEFLTVQTGGTLYRITHTNDIVPRLPPREFGYSHSSPEYWIKSGTLVPVTRNDIVKIEGIDATGGNNQPNIPDIPAHLWYFGLIGTCL
modifications: Atto 488 coupled unspecifically to amines via NHS-ester (15 nM labelled protein, non-labelled enzyme added to 500 nM)
notes: Thermomyces lanuginosus lipase (TLL), commercial enzyme preparation; The PDB entries were used only for computational surface analysis; also called TLL; Atto 488-TLL; source: gift from ASA Spezialenzyme GmbH (Wolfenbüttel, Germany), desalted (HiTrap Desalting) before use
- stoichiometry N: 2
